Measurements as given in article PMC10341545, “Structural and Biochemical Investigation of Selected Pathogenic Mutants of the Human Dihydrolipoamide Dehydrogenase” (International Journal of Molecular Sciences, 2023).

How the values were obtained:
[1] = target: the molecule itself; test: crystal structure; sitting drop; 0.2 M MgCl2, PEG 3350, 0.1 M Bis-Tris pH 6.7; space group C 1 2 1; two monomers (the homodimer) in the asymmetric unit
[2] = target: the molecule itself; test: SEC; calibrated size-exclusion chromatography (cSEC); HiPrep 16/60 Sephacryl S-200 HR, 4 °C, 150 mM ammonium acetate, pH 6.80, 0.5 mL/min; 40–780 μg protein loaded; dimer to monomers

Protein | binding result [1] | binding result [2]
I318T-hLADH (enzyme, human, UniProt P09622 36-509, looked up, Dihydrolipoamide dehydrogenase, human, pathogenic variant I318T; Clinically reported disease-causing variant; mutation verified by MS) ADQPIDADVTVIGSGPGGYVAAIKAAQLGFKTVCIEKNETLGGTCLNVGCIPSKALLNNSHYYHMAHGKDFASRGIEMSEVRLNLDKMMEQKSTAVKALTGGIAHLFKQNKVVHVNGYGKITGKNQVTATKADGGTQVIDTKNILIATGSEVTPFPGITIDEDTIVSSTGALSLKKVPEKMVVIGAGVIGVELGSVWQRLGADVTAVEFLGHVGGVGIDMEISKNFQRILQKQGFKFKLNTKVTGATKKSDGKIDVSIEAASGGKAEVITCDVLLVCIGRRPFTKNLGLEELGIELDPRGRIPVNTRFQTKIPNIYATGDVVAGPMLAHKAEDEGIICVEGMAGGAVHIDYNCVPSVIYTHPEVAWVGKSEEQLKEEGIEYKVGKFPFAANSRAKTNADTDGMVKILGQKSTDRVLGAHILGPGAGEMVNEAALALEYGASCEDIARVCHAHPTLSEAFREANLAASFGKSINF | binds | 
R447G-hLADH (enzyme, human, UniProt P09622 36-509, looked up, Dihydrolipoamide dehydrogenase, human, pathogenic variant R447G; Clinically reported disease-causing variant) ADQPIDADVTVIGSGPGGYVAAIKAAQLGFKTVCIEKNETLGGTCLNVGCIPSKALLNNSHYYHMAHGKDFASRGIEMSEVRLNLDKMMEQKSTAVKALTGGIAHLFKQNKVVHVNGYGKITGKNQVTATKADGGTQVIDTKNILIATGSEVTPFPGITIDEDTIVSSTGALSLKKVPEKMVVIGAGVIGVELGSVWQRLGADVTAVEFLGHVGGVGIDMEISKNFQRILQKQGFKFKLNTKVTGATKKSDGKIDVSIEAASGGKAEVITCDVLLVCIGRRPFTKNLGLEELGIELDPRGRIPVNTRFQTKIPNIYAIGDVVAGPMLAHKAEDEGIICVEGMAGGAVHIDYNCVPSVIYTHPEVAWVGKSEEQLKEEGIEYKVGKFPFAANSRAKTNADTDGMVKILGQKSTDRVLGAHILGPGAGEMVNEAALALEYGASCEDIAGVCHAHPTLSEAFREANLAASFGKSINF |  | binds
G194C-hLADH (enzyme, human, UniProt P09622 36-509, looked up, Dihydrolipoamide dehydrogenase, human, pathogenic variant G194C; Clinically reported disease-causing variant) ADQPIDADVTVIGSGPGGYVAAIKAAQLGFKTVCIEKNETLGGTCLNVGCIPSKALLNNSHYYHMAHGKDFASRGIEMSEVRLNLDKMMEQKSTAVKALTGGIAHLFKQNKVVHVNGYGKITGKNQVTATKADGGTQVIDTKNILIATGSEVTPFPGITIDEDTIVSSTGALSLKKVPEKMVVIGAGVIGVELCSVWQRLGADVTAVEFLGHVGGVGIDMEISKNFQRILQKQGFKFKLNTKVTGATKKSDGKIDVSIEAASGGKAEVITCDVLLVCIGRRPFTKNLGLEELGIELDPRGRIPVNTRFQTKIPNIYAIGDVVAGPMLAHKAEDEGIICVEGMAGGAVHIDYNCVPSVIYTHPEVAWVGKSEEQLKEEGIEYKVGKFPFAANSRAKTNADTDGMVKILGQKSTDRVLGAHILGPGAGEMVNEAALALEYGASCEDIARVCHAHPTLSEAFREANLAASFGKSINF |  | binds
I358T-hLADH (enzyme, human, UniProt P09622 36-509, looked up, Dihydrolipoamide dehydrogenase, human, pathogenic variant I358T; Clinically reported disease-causing variant; mutation verified by MS) ADQPIDADVTVIGSGPGGYVAAIKAAQLGFKTVCIEKNETLGGTCLNVGCIPSKALLNNSHYYHMAHGKDFASRGIEMSEVRLNLDKMMEQKSTAVKALTGGIAHLFKQNKVVHVNGYGKITGKNQVTATKADGGTQVIDTKNILIATGSEVTPFPGITIDEDTIVSSTGALSLKKVPEKMVVIGAGVIGVELGSVWQRLGADVTAVEFLGHVGGVGIDMEISKNFQRILQKQGFKFKLNTKVTGATKKSDGKIDVSIEAASGGKAEVITCDVLLVCIGRRPFTKNLGLEELGIELDPRGRIPVNTRFQTKIPNIYAIGDVVAGPMLAHKAEDEGIICVEGMAGGAVHIDYNCVPSVTYTHPEVAWVGKSEEQLKEEGIEYKVGKFPFAANSRAKTNADTDGMVKILGQKSTDRVLGAHILGPGAGEMVNEAALALEYGASCEDIARVCHAHPTLSEAFREANLAASFGKSINF | binds | 
I12T-hLADH (enzyme, human, UniProt P09622 36-509, looked up, Dihydrolipoamide dehydrogenase, human, pathogenic variant I12T; Also expressed with an N-terminal Twin-Strep-tag to increase the yield; source: very low-expressing, eluted with contaminating proteins) ADQPIDADVTVTGSGPGGYVAAIKAAQLGFKTVCIEKNETLGGTCLNVGCIPSKALLNNSHYYHMAHGKDFASRGIEMSEVRLNLDKMMEQKSTAVKALTGGIAHLFKQNKVVHVNGYGKITGKNQVTATKADGGTQVIDTKNILIATGSEVTPFPGITIDEDTIVSSTGALSLKKVPEKMVVIGAGVIGVELGSVWQRLGADVTAVEFLGHVGGVGIDMEISKNFQRILQKQGFKFKLNTKVTGATKKSDGKIDVSIEAASGGKAEVITCDVLLVCIGRRPFTKNLGLEELGIELDPRGRIPVNTRFQTKIPNIYAIGDVVAGPMLAHKAEDEGIICVEGMAGGAVHIDYNCVPSVIYTHPEVAWVGKSEEQLKEEGIEYKVGKFPFAANSRAKTNADTDGMVKILGQKSTDRVLGAHILGPGAGEMVNEAALALEYGASCEDIARVCHAHPTLSEAFREANLAASFGKSINF |  | binds
G426E-hLADH (enzyme, human, UniProt P09622 36-509, looked up, Dihydrolipoamide dehydrogenase, human, pathogenic variant G426E; Clinically reported disease-causing variant) ADQPIDADVTVIGSGPGGYVAAIKAAQLGFKTVCIEKNETLGGTCLNVGCIPSKALLNNSHYYHMAHGKDFASRGIEMSEVRLNLDKMMEQKSTAVKALTGGIAHLFKQNKVVHVNGYGKITGKNQVTATKADGGTQVIDTKNILIATGSEVTPFPGITIDEDTIVSSTGALSLKKVPEKMVVIGAGVIGVELGSVWQRLGADVTAVEFLGHVGGVGIDMEISKNFQRILQKQGFKFKLNTKVTGATKKSDGKIDVSIEAASGGKAEVITCDVLLVCIGRRPFTKNLGLEELGIELDPRGRIPVNTRFQTKIPNIYAIGDVVAGPMLAHKAEDEGIICVEGMAGGAVHIDYNCVPSVIYTHPEVAWVGKSEEQLKEEGIEYKVGKFPFAANSRAKTNADTDGMVKILGQKSTDRVLGAHILGPGAEEMVNEAALALEYGASCEDIARVCHAHPTLSEAFREANLAASFGKSINF |  | binds
K37E-hLADH (enzyme, human, UniProt P09622 36-509, looked up, Dihydrolipoamide dehydrogenase, human, pathogenic variant K37E; Clinically reported disease-causing variant) ADQPIDADVTVIGSGPGGYVAAIKAAQLGFKTVCIEENETLGGTCLNVGCIPSKALLNNSHYYHMAHGKDFASRGIEMSEVRLNLDKMMEQKSTAVKALTGGIAHLFKQNKVVHVNGYGKITGKNQVTATKADGGTQVIDTKNILIATGSEVTPFPGITIDEDTIVSSTGALSLKKVPEKMVVIGAGVIGVELGSVWQRLGADVTAVEFLGHVGGVGIDMEISKNFQRILQKQGFKFKLNTKVTGATKKSDGKIDVSIEAASGGKAEVITCDVLLVCIGRRPFTKNLGLEELGIELDPRGRIPVNTRFQTKIPNIYAIGDVVAGPMLAHKAEDEGIICVEGMAGGAVHIDYNCVPSVIYTHPEVAWVGKSEEQLKEEGIEYKVGKFPFAANSRAKTNADTDGMVKILGQKSTDRVLGAHILGPGAGEMVNEAALALEYGASCEDIARVCHAHPTLSEAFREANLAASFGKSINF |  | binds
I445M-hLADH (enzyme, human, UniProt P09622 36-509, looked up, Dihydrolipoamide dehydrogenase, human, pathogenic variant I445M; Clinically reported disease-causing variant) ADQPIDADVTVIGSGPGGYVAAIKAAQLGFKTVCIEKNETLGGTCLNVGCIPSKALLNNSHYYHMAHGKDFASRGIEMSEVRLNLDKMMEQKSTAVKALTGGIAHLFKQNKVVHVNGYGKITGKNQVTATKADGGTQVIDTKNILIATGSEVTPFPGITIDEDTIVSSTGALSLKKVPEKMVVIGAGVIGVELGSVWQRLGADVTAVEFLGHVGGVGIDMEISKNFQRILQKQGFKFKLNTKVTGATKKSDGKIDVSIEAASGGKAEVITCDVLLVCIGRRPFTKNLGLEELGIELDPRGRIPVNTRFQTKIPNIYAIGDVVAGPMLAHKAEDEGIICVEGMAGGAVHIDYNCVPSVIYTHPEVAWVGKSEEQLKEEGIEYKVGKFPFAANSRAKTNADTDGMVKILGQKSTDRVLGAHILGPGAGEMVNEAALALEYGASCEDMARVCHAHPTLSEAFREANLAASFGKSINF |  | binds
